Results published in article PMC3539201.

Molecular target: MBP-torsinAΔE (human) (UniProt O14656)
Test: pull-down

B1: nesprin-3α (endogenous, mouse fibroblasts) (natural protein)
chain: MTQQPQEDFERSVEDAQAWMKVIQEQLQVNDNTKGPRAALEARLRETEKICQLESEGMVKVELVLRAAEALLATCQEGQKPEILARLRDIKSQWEETVTYMTHCHSRIEWVWLHWSEYLLAQDEFYRWFQKMVVALEPPVELQLGLKEKQWQLSHAQVLLHNVDNQAVLLDRLLEEAGSLFSRIGDPSVDEDAQKRMKAEYDAVKARAQRRVDLLAQVAQDHEQYREDVNEFQLWLKAVVEKVHSCLGRNCKLATELRLSTLQDIAKDFPRGEESLKRLEEQAVGVIQNTSPLGAEKISGELEEMRGVLEKLRVLWKEEEGRLRGLLQSRGDCEQQIQQLEAELGDFKKSLQRLAQEGLEPTVKTATEDELVAQWRLFSGTRAALASEEPRVDRLQTQLKKLVTFPDLQSLSDSVVATIQEYQSMKGKNTRLHNATRAELWQRFQRPLNDLQLWKALAQRLLDITASLPDLASIHTFLPQIEAALTESSRLKEQLAMLQLKTDLLGSIFGQERAATLLEQVTSSVRDRDLLHNSLLQRKSKLQSLLVQHKDFGVAFDPLNRKLLDLQARIQAEKGLPRDLPGKQVQLLRLQGLQEEGLDLGTQIEAVRPLAHGNSKHQQKVDQISCDQQALQRSLEDLVDRCQQNVREHCTFSHRLSELQLWITMATQTLESHQGDVRLWDAESQEAGLETLLSEIPEKEVQVSLLQALGQLVMKKSSPEGATMVQEELRKLMESWQALRLLEENMLSLMRNQQLQRTEVDTGKKQVFTNNIPKAGFLINPQDPIPRRQHGANPLEGHDLPEDHPQLLRDFEQWLQAENSKLRRIITMRVATAKDLRTREVKLQELEARIPEGQHLFENLLRLRPARDPSNELEDLRYRWMLYKSKLKDSGHLLTESSPGELTAFQKSRRQKRWSPCSLLQKACRVALPLQLLLLLFLLLLFLLPAGEEERSCALANNFARSFALMLRYNGPPPT
Question: For B1, which fold nesprin-3α pulled down relative to MBP-torsinA is on record?
Answer: 3 fold
